This note sets out measurements from article PMC11396700, “Synthesis and Biological Activity of Homohypotaurine Obtained by the Enzyme-Based Conversion of Homocysteine Sulfinic Acid Using Recombinant Escherichia Coli Glutamate Decarboxylase” (Molecules, 2024).

A word on the Km: it is the substrate concentration at which the rate is half of its maximum. What is called kcat is the maximal rate divided by the concentration of active sites. By kcat/Km is commonly meant the second-order rate constant that governs catalysis at low substrate concentration.

One data set concerns the target T1, EcGadB (Escherichia coli, UniProt P69910).
T1 construct: gene gadB; recombinant, purified full-length enzyme, prepared by earlier published protocol; PLP enzyme
T1 sequence (P69910 1-466): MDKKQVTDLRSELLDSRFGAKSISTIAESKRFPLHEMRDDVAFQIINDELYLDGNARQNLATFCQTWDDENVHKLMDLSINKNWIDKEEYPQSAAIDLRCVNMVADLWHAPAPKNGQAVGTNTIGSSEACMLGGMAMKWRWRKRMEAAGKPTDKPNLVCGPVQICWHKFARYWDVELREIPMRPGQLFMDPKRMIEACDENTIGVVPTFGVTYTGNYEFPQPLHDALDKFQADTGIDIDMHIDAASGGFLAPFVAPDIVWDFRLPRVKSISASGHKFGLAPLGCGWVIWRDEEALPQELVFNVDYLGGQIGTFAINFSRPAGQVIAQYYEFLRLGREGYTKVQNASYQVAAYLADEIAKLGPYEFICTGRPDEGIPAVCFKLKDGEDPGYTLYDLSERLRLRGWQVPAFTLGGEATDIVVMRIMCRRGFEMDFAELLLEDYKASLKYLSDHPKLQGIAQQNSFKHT
The experiment in a line: decarboxylation; GABA quantified by end-point GABase assay (NADPH at […] nm), Michaelis-Menten fit. The class given is biochemical. To be noted: pyridine/HCl 0.2 M (0.1 M in Figure 2 legend), pH 4.6, 37 °C, 1 mM PLP, 0.1 mM DTT; 0.15-10 mM substrate.

Substrate in the data set “purified protein”: N[C@@H](CCS(=O)O)C(=O)O
The data set can be described thus: purified protein. The class given is biochemical, Escherichia coli. To be noted: pyridine/HCl 0.2 M (0.1 M in Figure 2 legend), pH 4.6, 37 °C, 1 mM PLP, 0.1 mM DTT, 3-300 mM substrate.

Take `N[C@@H](CCC(=O)O)C(=O)O` [L-Glu, L-Glutamic acid]: the Michaelis constant (Km) at EcGadB came out at 840 ± 90 µM.

B1: EcGadB (Escherichia coli K-12) (protein)
chain: MDKKQVTDLRSELLDSRFGAKSISTIAESKRFPLHEMRDDVAFQIINDELYLDGNARQNLATFCQTWDDENVHKLMDLSINKNWIDKEEYPQSAAIDLRCVNMVADLWHAPAPKNGQAVGTNTIGSSEACMLGGMAMKWRWRKRMEAAGKPTDKPNLVCGPVQICWHKFARYWDVELREIPMRPGQLFMDPKRMIEACDENTIGVVPTFGVTYTGNYEFPQPLHDALDKFQADTGIDIDMHIDAASGGFLAPFVAPDIVWDFRLPRVKSISASGHKFGLAPLGCGWVIWRDEEALPQELVFNVDYLGGQIGTFAINFSRPAGQVIAQYYEFLRLGREGYTKVQNASYQVAAYLADEIAKLGPYEFICTGRPDEGIPAVCFKLKDGEDPGYTLYDLSERLRLRGWQVPAFTLGGEATDIVVMRIMCRRGFEMDFAELLLEDYKASLKYLSDHPKLQGIAQQNSFKHT
notes: recombinant, purified full-length enzyme, prepared by earlier published protocol; PLP enzyme
On to B1, for which, in the data set “purified protein”, the Michaelis constant (Km) stood at 38240 ± 3450 µM, the catalytic constant (kcat) was found to be 33.9 ± 1.07 s⁻¹ and the catalytic efficiency (kcat/Km) turned out to be 890 ± 90 M⁻¹ s⁻¹.
